Results as given in US20150037339A1 (Regeneron, published 2015).

Tests used:
Activin A [1] = biological target: T1, Activin A (human, UniProt P08476 311-426); assay: cell-based or functional assay
T1 sequence: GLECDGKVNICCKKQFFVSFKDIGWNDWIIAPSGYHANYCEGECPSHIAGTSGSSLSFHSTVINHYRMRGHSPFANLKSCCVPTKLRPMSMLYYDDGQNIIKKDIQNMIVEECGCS

Activin AB [2] = biological target: T2, Activin AB (human, UniProt P08476 311-426; P09529 293-407); assay: cell-based or functional assay
T2 chain 1: T1 sequence
T2 chain 2: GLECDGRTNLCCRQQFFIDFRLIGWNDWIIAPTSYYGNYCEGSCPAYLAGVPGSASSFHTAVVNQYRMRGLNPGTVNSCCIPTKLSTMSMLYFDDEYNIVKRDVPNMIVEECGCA

Activin AC [3] = biological target: T3, Activin AC (human, UniProt P55103 237-352); assay: cell-based or functional assay
T3 sequence 1: T1 sequence
T3 sequence 2: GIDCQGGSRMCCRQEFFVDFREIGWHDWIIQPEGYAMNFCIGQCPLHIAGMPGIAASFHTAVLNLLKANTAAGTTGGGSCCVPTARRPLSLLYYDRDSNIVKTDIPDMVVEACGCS

Activin AC [4] = biological target: T3, Activin AC; assay: SPR (Biacore), mAb captured on anti-Fc, Activin AC injected, 37 C
In short: (§1)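 Antibodies were captured and activin variants injected, with association monitored for 240 s and dissociation for 600 s. Runs were at 25 °C or 37 °C as indicated per assay. KD was calculated as kd/ka and t1/2 as ln2/(60·kd) in min, from the fitted rate constants.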

Activin AB [5] = biological target: T2, Activin AB; assay: SPR (Biacore), mAb captured on anti-Fc, Activin AB injected, 37 C
In short: as §1

Activin AC [6] = biological target: T3, Activin AC; assay: SPR (Biacore), mAb captured on anti-Fc, Activin AC injected, 25 C
In short: as §1

Activin AB [7] = biological target: T2, Activin AB; assay: SPR (Biacore), mAb captured on anti-Fc, Activin AB injected, 25 C
In short: as §1

hBMP10 = biological target: T4, hBMP10 (human, UniProt O95393 317-424); assay: SPR (Biacore 4000), captured on anti-human Fc, 200 nM ligand injected, 37 C
T4 construct: Bought protein
T4 sequence (looked up): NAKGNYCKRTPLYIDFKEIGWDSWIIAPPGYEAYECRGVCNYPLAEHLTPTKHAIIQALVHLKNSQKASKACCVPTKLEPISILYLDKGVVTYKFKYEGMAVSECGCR
Method: (§2) For the binding experiment, a Biacore 4000 instrument was used. […] All Biacore binding studies were performed in HBS-T running buffer (0.01 M HEPES pH 7.4, 0.5 M NaCl, 3 mM EDTA, 0.5 mg/ml bovine serum albumin, 0.05% v/v Surfactant P20). […] All binding measurements were performed at 37° C. […] Over the captured antibody surface was injected the TGF-beta family ligands through concentrations ranging from 3.1 nM to 200 nM.

hBMP2 = biological target: T5, hBMP2 (human, UniProt P12643 283-396); assay: as above
T5 construct: Bought protein; also called BPM2
T5 sequence (P12643 283-396 limits assumed): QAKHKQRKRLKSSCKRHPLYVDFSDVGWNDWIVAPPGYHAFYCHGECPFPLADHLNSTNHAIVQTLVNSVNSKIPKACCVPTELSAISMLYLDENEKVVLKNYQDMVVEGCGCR
Method: as §2

hBMP6 = biological target: T6, hBMP6 (human, UniProt P22004 382-513, limits assumed); assay: as above
T6 construct: Bought protein
T6 sequence (looked up): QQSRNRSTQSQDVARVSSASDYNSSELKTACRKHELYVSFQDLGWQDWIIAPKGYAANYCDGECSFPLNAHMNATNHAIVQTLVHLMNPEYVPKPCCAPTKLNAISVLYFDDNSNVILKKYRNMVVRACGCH
Method: as §2

Activin A [8] = biological target: T1, Activin A; assay: as above
Method: as §2

hBMP7 = biological target: T7, hBMP7 (human, UniProt P18075 293-431); assay: as above
T7 construct: Bought protein
T7 sequence (looked up): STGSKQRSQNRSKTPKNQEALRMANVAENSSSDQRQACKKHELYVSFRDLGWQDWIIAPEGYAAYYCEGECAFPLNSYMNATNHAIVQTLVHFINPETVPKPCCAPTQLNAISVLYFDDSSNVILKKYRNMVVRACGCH
Method: as §2

hBMP9 = biological target: T8, hBMP9 (human, UniProt Q9UK05 320-429); assay: as above
T8 construct: Bought protein
T8 sequence (looked up): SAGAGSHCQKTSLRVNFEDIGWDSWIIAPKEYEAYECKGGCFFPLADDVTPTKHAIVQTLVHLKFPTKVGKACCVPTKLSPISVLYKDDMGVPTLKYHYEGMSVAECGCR
Method: as §2

Activin AB [9] = biological target: T2, Activin AB; assay: as above
Method: as §2

Activin AC [10] = biological target: T3, Activin AC; assay: as above
Method: as §2

GDF8 = biological target: T9, GDF8 (human, UniProt O14793 267-375); assay: as above
T9 construct: Bought (R&D Systems #788-G8); also called hGDF8; growth and differentiation factor-8
Method: as §2

hBMP4 = biological target: T10, hBMP4 (human, UniProt P12644 293-408); assay: as above
T10 construct: Bought protein
T10 sequence (looked up): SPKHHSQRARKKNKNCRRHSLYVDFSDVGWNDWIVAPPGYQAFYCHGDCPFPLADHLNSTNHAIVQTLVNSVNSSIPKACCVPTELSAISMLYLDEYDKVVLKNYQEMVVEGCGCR
Method: as §2

Activin B = biological target: T11, Activin B (human, UniProt P09529 293-407); assay: as above
T11 construct: Homodimer of two betaB subunits; bought (R&D Systems #659-AB)
T11 chain: T2 chain 2
Method: as §2

GDF11 = biological target: T12, GDF11 (human, UniProt O95390 299-407); assay: as above
T12 construct: Bought protein; also called hGDF11
T12 sequence (O95390 299-407 limits assumed): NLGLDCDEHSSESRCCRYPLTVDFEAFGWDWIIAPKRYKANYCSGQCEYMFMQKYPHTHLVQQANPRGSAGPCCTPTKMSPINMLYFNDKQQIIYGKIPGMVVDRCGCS
Method: as §2

B1: H4H10446P2 (antibody, human IgG4, V domains shown)
VH: QVQLQESGPGLVKPSETLSLTCTVSGGSFSSHFWSWIRQPPGKGLEWIGYILYTGGTSFNPSLKSRVSMSVGTSKNQFSLKLSSVTAADTAVYYCARARSGITFTGIIVPGSFDIWGQGTMVTVSS
VL: not shown
Activin A [1]
  IC50 [M], inhibition of 100 pM Activin A in A204/CAGAx12-Luc Smad2/3-luciferase bioassay: 4.7e-11 M
Activin AB [2]
  IC50 [M], inhibition of 30 pM Activin AB in A204/CAGAx12-Luc Smad2/3-luciferase bioassay: 8.2e-09 M
Activin AC [3]
  IC50 [M], inhibition of 4 nM Activin AC in A204/CAGAx12-Luc Smad2/3-luciferase bioassay: 5.6e-09 M
Activin AC [4]
  50 nM Ag Bound (RU): 14.4 RU
  Kd: 22.5 nM
  koff: 0.0216 s⁻¹
  kon: 959000 M⁻¹ s⁻¹
  t1/2: 0.5 min
Activin AB [5]
  50 nM Ag Bound (RU): 41.5 RU
  Kd: 1.34 nM
  koff: 0.00817 s⁻¹
  kon: 6.08e+06 M⁻¹ s⁻¹
  t1/2: 1.4 min
Activin AC [6]
  50 nM Ag Bound (RU): 12.6 RU
  Kd: 11.8 nM
  koff: 0.0122 s⁻¹
  kon: 1.04e+06 M⁻¹ s⁻¹
  t1/2: 0.9 min
Activin AB [7]
  50 nM Ag Bound (RU): 31.9 RU
  Kd: 0.815 nM
  koff: 0.00406 s⁻¹
  kon: 4.99e+06 M⁻¹ s⁻¹
  t1/2: 2.8 min
hBMP10
  binding response (resonance units) for 200 nM ligand: 0.5 RU
hBMP2
  binding response (resonance units) for 200 nM ligand: 3.3 RU
hBMP6
  binding response (resonance units) for 200 nM ligand: 5.3 RU
Activin A [8]
  binding response (resonance units) for 200 nM ligand: 53.2 RU
hBMP7
  binding response (resonance units) for 200 nM ligand: 5.7 RU
hBMP9
  binding response (resonance units) for 200 nM ligand: -0.3 RU
Activin AB [9]
  binding response (resonance units) for 200 nM ligand: 66.7 RU
Activin AC [10]
  binding response (resonance units) for 200 nM ligand: 15.2 RU
GDF8
  binding response (resonance units) for 200 nM ligand: 0.7 RU
hBMP4
  binding response (resonance units) for 200 nM ligand: 0.8 RU
Activin B
  binding response (resonance units) for 200 nM ligand: 2.6 RU
GDF11
  binding response (resonance units) for 200 nM ligand: 1.8 RU
